Results reported in patent publication US7588931B2, “High arachidonic acid producing strains of Yarrowia lipolytica” (E. I. du Pont de Nemours and Company, priority 2004, dated 2009).
Entries after “also recorded” stand apart in the source; their conditions may differ.

Key:
Assay type in all cases: cell-based, Yarrowia lipolytica
[1] = system: β-glucuronidase (GUS) reporter; experiment: Comparative analysis of promoters by histochemical analysis of GUS expression
Experimental: Comparative studies investigating the promoter activities of the TEF, GPD, GPDIN, GPM, GPAT, FBA, FBAIN and YAT1 promoters were performed, by synthesizing constructs comprising each promoter and the E. coli gene encoding β-glucuronidase (GUS) as a reporter gene (Jefferson, R. A. Nature. 14(342):837-838 (1989)). Then, GUS activity was measured by histochemical and fluorometric assays (Jefferson, R. A. Plant Mol. Biol. Reporter 5:387-405 (1987)) and/or by using Real Time PCR for mRNA quantitation.
Yarrowia lipolytica ATCC #76982 strains containing plasmids pY5-30, pYZGDG, pYZGMG, pDMW212 and pDMW214 were grown from single colonies in 3 mL MM at 30° C. to an OD600˜1.0. Then, 100 μl of cells were collected by centrifugation, resuspended in 100 μl of histochemical staining buffer, and incubated at 30° C. Staining buffer was prepared by dissolving 5 mg of 5-bromo-4-chloro-3-indolyl glucuronide (X-Gluc) in 50 μl dimethyl formamide, followed by the addition of 5 mL 50 mM NaPO4, pH 7.0.
In a separate experiment, Y. lipolytica Y2034 strains containing plasmids pY5-30, pYGPAT-GUS, pYAT-GUS and pDMW214 were grown from single colonies in 5 mL SD media at 30° C. for 24 hrs to an OD600˜8.0. Then, 1 mL of cells were collected by centrifugation. The remaining cultures were centrifuged and washed 2× with HGM, resuspended in 5 mL each of HGM and allowed to grow at 30° C. further. After 24 and 120 hrs, ˜0.25 mL of each culture were centrifuged to collect the cells. Cell samples were resuspended individually in 100 μl of histochemical staining buffer (supra). Zymolase 20T (5 μl of 1 mg/mL; ICN Biomedicals, Costa Mesa, Calif.) was added to each, and the mixture incubated at 30° C. […]

[2] = system: β-glucuronidase (GUS) reporter; experiment: Comparative analysis of promoters by fluorometric assay of GUS expression
Experimental: GUS activity was also assayed by fluorometric determination of the production of 4-methylumbelliferone (4-MU) from the corresponding substrate β-glucuronide (Jefferson, R. A. Plant Mol. Biol. Reporter 5:387-405 (1987)).
Yarrowia lipolytica ATCC #76982 strains containing plasmids pY5-30, PYZGDG, PYZGMG, pDMW212 and pDMW214 were grown from single colonies in 3 mL MM (as described above) at 30° C. to an OD600˜1.0. Then, the 3 mL cultures were each added to a 500 mL flask containing 50 mL MM and grown in a shaking incubator at 30° C. for about 24 hrs. The cells were collected by centrifugation, resuspended in Promega Cell Lysis Buffer and lysed using the BIO 101 Biopulverizer system (Vista, Calif.). After centrifugation, the supernatants were removed and kept on ice.
Similarly, Y. lipolytica strain Y2034 containing plasmids pY5-30, pYAT-GUS, pYGPAT-GUS and pDMW214 constructs, respectively, were grown from single colonies in 10 mL SD medium at 30° C. for 48 hrs to an OD600˜5.0. Two mL of each culture was collected for GUS activity assays, as described below, while 5 mL of each culture was switched into HGM.
Specifically, cells from the 5 mL aliquot were collected by centrifugation, washed once with 5 mL of HGM and resuspended in HGM. The cultures in HGM were then grown in a shaking incubator at 30° C. for 24 hrs. Two mL of each HGM culture were collected for the GUS activity assay, while the remaining culture was allowed to grow for an additional 96 hrs before collecting an additional 2 mL of each culture for the assay.
Each 2 mL culture sample in SD medium was resuspended in 1 mL of 0.5× cell culture lysis reagent (Promega). Resuspended cells were mixed with 0.6 mL of glass beads (0.5 mm diameter) in a 2.0 mL screw cap tube with a rubber O-ring. The cells were then homogenized in a Biospec mini beadbeater (Bartlesville, Okla.) at the highest setting for 90 sec. The homogenization mixtures were centrifuged for 2 min at 14,000 rpm in an Eppendof centrifuge to remove cell debris and beads. The supernatant was used for GUS assay and protein determination.
For each fluorometric assay, 100 μl of extract was added to […] of GUS assay buffer (2 mM 4-methylumbelliferyl-β-D-glucuronide (“MUG”) in extraction buffer) or 200 μl of extract was added to 800 μl of GUS assay buffer. The mixtures were placed at 37° C. Aliquots of 100 μl were taken at 0, 30 and 60 min time points and added to 900 μl of stop buffer (1 M Na2CO3). Each time point was read using a CytoFluor Series 4000 Fluorescence Multi-Well Plate Reader (PerSeptive Biosystems, Framingham, Mass.) set to an excitation wavelength of 360 nm and an emission wavelength of 455 nm. Total protein concentration of each sample was determined using 10 μl of extract and 200 μl of BioRad Bradford reagent or 20 μl of extract and 980 μl of BioRad Bradford reagent (Bradford, M. M. Anal. Biochem. 72:248-254 (1976)). GUS activity was expressed as nmoles of 4-MU per minute per mg of protein.

[3] = system: β-glucuronidase (GUS) reporter; experiment: Relative promoter activity rank from comparative GUS reporter studies (histochemical, fluorometric and/or Real Time PCR); parameters: key: a ‘1’ corresponds to the promoter with lowest activity; a ‘7’ corresponds to the promoter with highest activity; conditions: relative to other promoters
Experimental: The activity of GPM is about the same as TEF, while the activity of GPD, FBA, FBAIN, FBAINm, GPDIN, GPAT, YAT1 and EXP1 are all greater than TEF (activity is quantified in a relative manner in the column titled “Activity Rank”, wherein a ‘1’ corresponds to the promoter with lowest activity, while a ‘7’ corresponds to the promoter with highest activity). […] GUS activity in each expressed construct was measured by histochemical and/or fluorometric assays (Jefferson, R. A. Plant Mol. Biol. Reporter 5:387-405 (1987)) and/or by use of Real Time PCR.

[4] = ATCC #76982 strains, MM, FIG. 5B

B1: TEF: Y. lipolytica translation elongation factor EF1-α promoter, SEQ ID NO:166 (nucleic acid, listed as Yarrowia lipolytica)
DNA: GACCGGGTTGGCGGCGTATTTGTGTCCCAAAAAACAGCCCCAATTGCCCCAATTGACCCCAAATTGACCCAGTAGCGGGCCCAACCCCGGCGAGAGCCCCCTTCACCCCACATATCAAACCTCCCCCGGTTCCCACACTTGCCGTTAAGGGCGTAGGGTACTGCAGTCTGGAATCTACGCTTGTTCAGACTTTGTACTAGTTTCTTTGTCTGGCCATCCGGGTAACCCATGCCGGACGCAAAATAGACTACTGAAAATTTTTTTGCTTTGTGGTTGGGACTTTAGCCAAGGGTATAAAAGACCACCGTCCCCGAATTACCTTTCCTCTTCTTTTCTCTCTCTCCTTGTCAACTCACACCCGAAATCGTTAAGCATTTCCTTCTGAGTATAAGAATCATTCAAAGGATCCACTAGTTCTAGAGCGGCCGCTTAAACC
modifications: misc_feature: Promoter TEF
promoter activity by histochemical staining [1, 4]: active
GUS activity ([2]; strain Y2034, 24 hr, HGM): 0.942 nmoles of 4-MU per minute per mg of protein
GUS activity ([2]; strain Y2034, 48 hr, SD): 0.401 nmoles of 4-MU per minute per mg of protein
GUS activity ([2]; strain Y2034, 120 hr HGM): 0.466 nmoles of 4-MU per minute per mg of protein
increase of promoter activity ([2]; switched from SD medium into HGM and grown for 24 hrs): 2.3 fold
Activity “Rank” [3]: 1

B2: GPM: Y. lipolytica phosphoglycerate mutase promoter, SEQ ID NO:160 (nucleic acid, listed as Yarrowia lipolytica)
DNA: GCCTCTGAATACTTTCAACAAGTTACACCCTTCATTAATTCTCACGTGACACAGATTATTAACGTCTCGTACCAACCACAGATTACGACCCATTCGCAGTCACAGTTCACTAGGGTTTGGGTTGCATCCGTTGAGAGCGGTTTGTTTTTAACCTTCTCCATGTGCTCACTCAGGTTTTGGGTTCAGATCAAATCAAGGCGTGAACCACTTTGTTTGAGGACAAATGTGACACAACCAACCAGTGTCAGGGGCAAGTCCGTGACAAAGGGGAAGATACAATGCAATTACTGACAGTTACAGACTGCCTCGATGCCCTAACCTTGCCCCAAAATAAGACAACTGTCCTCGTTTAAGCGCAACCCTATTCAGCGTCACGTCATAATAGCGTTTGGATAGCACTAGTCTATGAGGAGCGTTTTATGTTGCGGTGAGGGCGATTGGTGCTCATATGGGTTCAATTGAGGTGGCGGAACGAGCTTAGTCTTCAATTGAGGTGCGAGCGACACAATTGGGTGTCACGTGGCCTAATTGACCTCGGGTCGTGGAGTCCCCAGTTATACAGCAACCACGAGGTGCATGGGTAGGAGACGTCACCAGACAATAGGGTTTTTTTTGGACTGGAGAGGGTTGGGCAAAAGCGCTCAACGGGCTGTTTGGGGAGCTGTGGGGGAGGAATTGGCGATATTTGTGAGGTTAACGGCTCCGATTTGCGTGTTTTGTCGCTCCTGCATCTCCCCATACCCATATCTTCCCTCCCCACCTCTTTCCACGATAATTTTACGGATCAGCAATAAGGTTCCTTCTCCTAGTTTCCACGTCCATATATATCTATGCTGCGTCGTCCTTTTCGTGACATCACCAAAACACATACAAAAATG
modifications: misc_feature: Promoter GPM
promoter activity by histochemical staining [1, 4]: active
Activity “Rank” [3]: 1

B3: GPAT: Y. lipolytica glycerol-3-phosphate acyltransferase promoter, SEQ ID NO:164 (nucleic acid, listed as Yarrowia lipolytica)
DNA: CAACTTTTCTTGTCGACCTGAGATACCGAGGTTGCGCAGGGGATCAACTTTTGTGTCTCAGAGGGACCCAAGTGCGTACGGAGAGTACAGTACATACTGTAGCTAACGGTAGCAGGCGAACTACTGGTACATACCTCCCCCGGAATATGTACAGGCATAATGCGTATCTGTGGGACATGTGGTCGTTGCGCCATTATGTAAGCAGCGTGTACTCCTCTGACTGTCCATATGGTTTGCTCCATCTCACCCTCATCGTTTTCATTGTTCACAGGCGGCCACAAAAAAACTGTCTTCTCTCCTTCTCTCTTCGCCTTAGTCTACTCGGACCAGTTTTAGTTTAGCTTGGCGCCACTGGATAAATGAGACCTCAGGCCTTGTGATGAGGAGGTCACTTATGAAGCATGTTAGGAGGTGCTTGTATGGATAGAGAAGCACCCAAAATAATAAGAATAATAATAAAACAGGGGGCGTTGTCATTTCATATCGTGTTTTCACCATCAATACACCTCCAAACAATGCCCTTCATGTGGCCAGCCCCAATATTGTCCTGTAGTTCAACTCTATGCAGCTCGTATCTTATTGAGCAAGTAAAACTCTGTCAGCCGATATTGCCCGACCCGCGACAAGGGTCAACAAGGTGGTGTAAGGCCTTCGCAGAAGTCAAAACTGTGCCAAACAAACATCTAGAGTCTCTTTGGTGTTTCTCGCATATATTTAATCGGCTGTCTTACGTATTTGGCCTCGGTACCGGACTAATTTCGGATCATCCCCAATACGCTTTTTCTTCGCAGCTGTCAACAGTGTCCATGATCTATCCACCTAAATGGGTCATATGAGGCGTATAATTTCGTGGTGCTGATAATAATTCCCATATATTTGACACAAAACTTCCCCCCCTAGACATACATCTCACAATCTCACTTCTTGTGCTTCTGTCACACATCTCCTCCAGCTGACTTCAACTCACACCTCTGCCCCAGTTGGTCTACAGCGGTATAAGGTTTCTCCGCATAGAGGTGCACCACTCCTCCCGATACTTGTTTGTGTGACTTGTGGGTCACGACATATATATCTACACACATTGCGCCACCCTTTGGTTCTTCCAGCACAACAAAAACACGACACGCTAA
modifications: misc_feature: Promoter GPAT
promoter activity by histochemical staining ([1]; strain Y2034, 24 hr in SD medium, FIG. 5C): active; also recorded: much stronger than the TEF promoter
GUS activity ([2]; strain Y2034, 24 hr, HGM): 2.969 nmoles of 4-MU per minute per mg of protein
GUS activity ([2]; strain Y2034, 48 hr, SD): 5.252 nmoles of 4-MU per minute per mg of protein
GUS activity ([2]; strain Y2034, 120 hr HGM): 3.050 nmoles of 4-MU per minute per mg of protein
reduction of promoter activity ([2]; switched from SD medium into HGM for 24 hrs): 40%
Activity “Rank” [3]: 5
